This passage reports fold weaker binding than HA-POLE2 and Kd results from paper PMC12808100, “The non-catalytic DNA polymerase ε subunit is an NPF motif recognition protein” (Nature Communications, 2025).

Experiment [1] concerns the target NPF motif peptide of DONSON (residues 71-88). In words: native holdup (nHU) titration with dot blot; DONSON_71-88-saturated streptavidin resin mixed with control resin at various proportions; extracts of HEK293T cells expressing HA-tagged POLE2 variants; 4 °C, 2 h; depletion quantified with an antibody against the HA tag; apparent.
For experiment [2], the target named is non-catalytic subunit of DNA polymerase ε (POLE2), endogenous (human (endogenous in Jurkat)) (UniProt P56282). In words: native holdup (nHU) with mass spectrometry; estimate from the difference between the depletion of POLE and of POLE2 by the same NPF motif bait, with about 1 nM of each assumed in the extract; apparent.
Chain of non-catalytic subunit of DNA polymerase ε (POLE2), endogenous (human (endogenous in Jurkat)) (P56282 whole entry): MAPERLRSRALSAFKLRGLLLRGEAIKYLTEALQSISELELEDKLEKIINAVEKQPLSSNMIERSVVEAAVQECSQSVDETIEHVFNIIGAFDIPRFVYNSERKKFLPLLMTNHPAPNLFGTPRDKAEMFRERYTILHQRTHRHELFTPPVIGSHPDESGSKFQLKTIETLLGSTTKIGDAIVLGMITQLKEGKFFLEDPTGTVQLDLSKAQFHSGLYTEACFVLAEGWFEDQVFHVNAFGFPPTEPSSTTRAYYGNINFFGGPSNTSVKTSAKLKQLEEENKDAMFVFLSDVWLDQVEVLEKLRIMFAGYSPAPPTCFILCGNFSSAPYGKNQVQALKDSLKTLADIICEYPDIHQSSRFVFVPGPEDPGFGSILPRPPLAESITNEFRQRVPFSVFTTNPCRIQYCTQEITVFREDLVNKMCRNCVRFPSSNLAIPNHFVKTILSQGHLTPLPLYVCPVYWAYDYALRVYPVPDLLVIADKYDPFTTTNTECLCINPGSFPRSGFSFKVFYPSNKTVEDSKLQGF

Chain of HA-MBP-POLE2 (P56282 whole entry): as above
Chain of catalytic subunit of DNA polymerase ε (POLE), endogenous (Q07864 whole entry): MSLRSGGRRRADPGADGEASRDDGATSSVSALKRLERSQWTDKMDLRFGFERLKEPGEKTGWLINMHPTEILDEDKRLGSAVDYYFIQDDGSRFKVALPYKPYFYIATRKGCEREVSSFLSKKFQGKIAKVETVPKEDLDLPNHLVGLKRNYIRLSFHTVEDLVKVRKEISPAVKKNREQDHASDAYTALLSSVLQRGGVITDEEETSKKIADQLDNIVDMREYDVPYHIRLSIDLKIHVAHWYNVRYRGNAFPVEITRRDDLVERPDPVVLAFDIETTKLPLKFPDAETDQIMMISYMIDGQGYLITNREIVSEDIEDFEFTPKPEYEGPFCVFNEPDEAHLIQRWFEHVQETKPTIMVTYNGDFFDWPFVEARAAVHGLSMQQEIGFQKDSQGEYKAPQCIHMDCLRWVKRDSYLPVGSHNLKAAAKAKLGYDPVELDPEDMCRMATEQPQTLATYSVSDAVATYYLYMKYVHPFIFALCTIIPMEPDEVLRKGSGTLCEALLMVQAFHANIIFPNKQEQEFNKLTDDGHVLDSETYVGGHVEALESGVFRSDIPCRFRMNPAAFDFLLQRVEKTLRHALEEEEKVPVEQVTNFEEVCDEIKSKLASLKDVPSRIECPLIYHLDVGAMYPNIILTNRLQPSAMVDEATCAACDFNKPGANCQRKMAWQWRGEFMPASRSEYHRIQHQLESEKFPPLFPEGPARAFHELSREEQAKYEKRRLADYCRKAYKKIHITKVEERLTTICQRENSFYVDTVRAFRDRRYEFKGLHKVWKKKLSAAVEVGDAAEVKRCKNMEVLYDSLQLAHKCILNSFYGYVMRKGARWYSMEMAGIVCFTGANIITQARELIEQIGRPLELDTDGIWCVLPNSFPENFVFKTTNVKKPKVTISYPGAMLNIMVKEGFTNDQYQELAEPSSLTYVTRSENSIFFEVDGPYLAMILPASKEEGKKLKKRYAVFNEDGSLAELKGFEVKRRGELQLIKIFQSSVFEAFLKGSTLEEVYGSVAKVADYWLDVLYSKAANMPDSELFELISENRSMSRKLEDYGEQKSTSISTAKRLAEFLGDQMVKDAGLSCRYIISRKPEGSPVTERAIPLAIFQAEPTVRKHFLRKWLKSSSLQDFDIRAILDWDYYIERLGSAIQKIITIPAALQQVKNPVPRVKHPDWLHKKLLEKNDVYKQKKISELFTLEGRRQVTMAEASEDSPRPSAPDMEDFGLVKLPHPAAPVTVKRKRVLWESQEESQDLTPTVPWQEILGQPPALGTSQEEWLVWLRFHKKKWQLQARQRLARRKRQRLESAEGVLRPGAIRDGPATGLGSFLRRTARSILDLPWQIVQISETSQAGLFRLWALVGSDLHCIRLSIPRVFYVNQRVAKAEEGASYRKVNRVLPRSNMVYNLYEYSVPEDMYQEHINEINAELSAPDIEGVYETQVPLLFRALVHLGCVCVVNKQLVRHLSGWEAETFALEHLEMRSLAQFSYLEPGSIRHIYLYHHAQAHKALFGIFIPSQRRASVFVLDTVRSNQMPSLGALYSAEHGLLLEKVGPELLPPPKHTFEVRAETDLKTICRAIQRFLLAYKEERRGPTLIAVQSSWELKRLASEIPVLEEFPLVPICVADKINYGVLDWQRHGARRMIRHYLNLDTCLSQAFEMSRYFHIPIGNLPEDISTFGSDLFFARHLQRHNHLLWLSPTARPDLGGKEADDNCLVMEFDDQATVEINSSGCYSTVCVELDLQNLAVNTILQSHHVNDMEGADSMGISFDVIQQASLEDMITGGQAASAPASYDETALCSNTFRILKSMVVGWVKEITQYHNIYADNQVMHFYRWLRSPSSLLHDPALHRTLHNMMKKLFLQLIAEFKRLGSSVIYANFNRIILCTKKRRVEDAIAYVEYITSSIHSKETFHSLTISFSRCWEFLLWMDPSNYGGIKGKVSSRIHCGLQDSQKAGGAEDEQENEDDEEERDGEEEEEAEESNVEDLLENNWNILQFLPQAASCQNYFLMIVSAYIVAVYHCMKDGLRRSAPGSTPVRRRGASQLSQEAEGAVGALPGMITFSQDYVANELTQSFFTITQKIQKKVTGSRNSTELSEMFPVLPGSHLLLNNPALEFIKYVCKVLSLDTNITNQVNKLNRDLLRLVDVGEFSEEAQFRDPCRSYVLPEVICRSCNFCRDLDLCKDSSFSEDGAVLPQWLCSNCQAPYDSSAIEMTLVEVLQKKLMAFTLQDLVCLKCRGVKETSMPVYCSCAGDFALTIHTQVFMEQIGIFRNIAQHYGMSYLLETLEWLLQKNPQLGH

Consider “HA-MBP-POLE2 (from UniProt P56282 1-527) (natural protein)”, for which the fold weaker binding than HA-POLE2 in experiment [1] was 10 fold.

In the case of “catalytic subunit of DNA polymerase ε (POLE), endogenous (from UniProt Q07864 1-2286) (natural protein)”, in experiment [2], the Kd is 0.1 to 0.3 nM.
